Laboratory results reported in patent US7193044.
Non-standard residues stand in square brackets, D forms with d. No end group written: not given here. pS = N[C@@H](COP(=O)(O)O)C(=O)O

Target: Recombinant Bcl-XL tagged with the glutathione S-transferase (GST) moiety [GST: P08515]
Test: competition ELISA: peptide against immobilised BAK BH3 peptide for GST-Bcl-XL

Recombinant Bcl-XL tagged with the glutathione S-transferase (GST) moiety [GST: P08515], sequence (Q07817 whole entry): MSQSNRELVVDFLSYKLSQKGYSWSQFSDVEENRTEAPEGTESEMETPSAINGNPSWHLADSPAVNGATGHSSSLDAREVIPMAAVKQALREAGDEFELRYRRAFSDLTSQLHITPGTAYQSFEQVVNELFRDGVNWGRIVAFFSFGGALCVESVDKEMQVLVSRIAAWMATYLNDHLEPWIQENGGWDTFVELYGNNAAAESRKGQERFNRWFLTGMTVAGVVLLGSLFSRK

fold reduction of affinity against the unphosphorylated BAD BH3 peptide: > 100 fold
Binder: AAQRYGRELRRM[pS]DEFEGSFKGLPRP [Synthetic BAD BH3 peptide (residues 143-168) phosphorylated on Ser155]
